Molecular target: molecules present at the cell surface of both cerebellar neurons and PC12 cells
Test: cell-based or functional assay

- percentage of adherent cells (mouse cerebellar neurons on KAL-coated surface, 90 min): 80%
Substance: purified recombinant human KAL protein (isolated from transfected CHO cells, clone CHKAL2-3/dll), coated on plastic (from UniProt P23352 25-680)

From patent publication US6548475
